Residue numbers refer to the chain shown, from its start.
Experiments:
[1] = molecular target: T1, Ang2 protein (R&D systems) (human, UniProt O15123 19-496); experiment: cell-based or functional assay
T1 sequence: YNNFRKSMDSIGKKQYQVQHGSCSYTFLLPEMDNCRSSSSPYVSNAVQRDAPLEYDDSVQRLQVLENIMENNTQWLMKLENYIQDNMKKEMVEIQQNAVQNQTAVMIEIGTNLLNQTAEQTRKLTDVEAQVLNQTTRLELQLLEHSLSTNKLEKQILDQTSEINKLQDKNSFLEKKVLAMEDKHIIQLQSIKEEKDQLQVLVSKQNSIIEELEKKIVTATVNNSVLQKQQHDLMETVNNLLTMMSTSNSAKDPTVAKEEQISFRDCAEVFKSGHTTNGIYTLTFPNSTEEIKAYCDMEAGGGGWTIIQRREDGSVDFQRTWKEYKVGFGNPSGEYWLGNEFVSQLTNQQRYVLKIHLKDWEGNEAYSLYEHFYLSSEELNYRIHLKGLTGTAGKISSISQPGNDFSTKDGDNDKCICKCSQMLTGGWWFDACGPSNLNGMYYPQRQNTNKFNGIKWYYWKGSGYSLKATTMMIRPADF

[2] = molecular target: T2, mutant Ang2 protein, N467 substituted with alanine, FLAG-tagged at its N-terminal (human, UniProt O15123 19-496, limits assumed); experiment: ELISA, coated antibody 1000 nM, 250 ng FLAG-tagged mutant Ang2, anti-FLAG-HRP, OD450
T2 sequence: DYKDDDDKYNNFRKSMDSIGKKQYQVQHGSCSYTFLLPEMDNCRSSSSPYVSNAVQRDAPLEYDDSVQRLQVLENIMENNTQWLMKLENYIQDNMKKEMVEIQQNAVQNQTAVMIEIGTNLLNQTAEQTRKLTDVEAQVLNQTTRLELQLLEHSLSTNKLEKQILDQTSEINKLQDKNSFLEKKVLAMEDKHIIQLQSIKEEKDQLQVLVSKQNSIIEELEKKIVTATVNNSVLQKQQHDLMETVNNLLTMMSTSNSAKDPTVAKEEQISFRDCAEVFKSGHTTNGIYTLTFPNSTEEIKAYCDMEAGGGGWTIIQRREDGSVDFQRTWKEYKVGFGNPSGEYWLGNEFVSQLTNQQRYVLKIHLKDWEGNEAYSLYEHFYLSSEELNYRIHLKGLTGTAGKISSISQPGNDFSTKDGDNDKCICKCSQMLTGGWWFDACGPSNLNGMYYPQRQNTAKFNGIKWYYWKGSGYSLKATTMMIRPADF
Experimental: (§1) Each well of a 96-well MaxiSorp™ flat-bottom plate (Nunc) was coated with 50 ul (microliter) of 1000 nM antibody. Then, the plate was washed five times with 0.05% (v/v) Tween-20-containing PBS (PBST) and blocked with 1% (v/v) BSA-containing PBS at a room temperature for 2 hours. 250 ng of each mutant Ang2 protein obtained by substituting S417, Q418, P419, N421, I434, D448, A449, P452, Y460, N467, K468, or F469 residue of Ang2 protein tagged with a FLAG sequence ([…], Sigma) at its N-terminal with alanine was added to each well of the plate, which was then allowed to react at a room temperature for 2 hours.
(§2) The plate was washed five times with 0.05% (v/v) Tween-20 containing PBS, reacted with an anti-FLAG antibody (SIGMA) conjugated with HRP which was diluted in 1% (v/v) BSA-containing PBS at a ratio of 1:5,000 (v/v) at a room temperature for 1 hour, and washed five times with 0.1% (v/v) Tween-20-containing PBS.
(§3) Finally, 50 ul of TMB substrates (Cell signaling) was added to each well of the plate to induce color development at a room temperature for 3 min. and the reaction was ceased by the addition of 50 ul of Stop solution (Cell signaling) and then, OD450 values were measured on a plate reader (Molecular Devices). By comparing binding affinities with mutated Ang2 to those of unmutated Ang2, each epitope of Ang2 antibodies was identified. The thus obtained measurement results of the binding affinities (%) with mutant Ang2 against the binding affinity with the native Ang2 are shown in the following Table 8.

[3] = molecular target: T3, mutant Ang2 protein, K468 substituted with alanine, FLAG-tagged at its N-terminal (human, UniProt O15123 19-496, limits assumed); experiment: as above
T3 sequence: T2 sequence with A457N, K458A
Experimental: as §1, §2, §3

hTie2-Fc (R&D Systems) = molecular target: T4, hTie2-Fc (R&D Systems) (human, UniProt Q02763 23-745); experiment: ELISA: coated Tie2-Fc, 10D6 2 µg/ml without Ang2, detected with anti-mouse IgG-HRP (OD450)
T4 construct: also called hTie-2/Fc fusion protein; not shown: Fc of human IgG1
T4 sequence (Q02763 23-745 limits assumed): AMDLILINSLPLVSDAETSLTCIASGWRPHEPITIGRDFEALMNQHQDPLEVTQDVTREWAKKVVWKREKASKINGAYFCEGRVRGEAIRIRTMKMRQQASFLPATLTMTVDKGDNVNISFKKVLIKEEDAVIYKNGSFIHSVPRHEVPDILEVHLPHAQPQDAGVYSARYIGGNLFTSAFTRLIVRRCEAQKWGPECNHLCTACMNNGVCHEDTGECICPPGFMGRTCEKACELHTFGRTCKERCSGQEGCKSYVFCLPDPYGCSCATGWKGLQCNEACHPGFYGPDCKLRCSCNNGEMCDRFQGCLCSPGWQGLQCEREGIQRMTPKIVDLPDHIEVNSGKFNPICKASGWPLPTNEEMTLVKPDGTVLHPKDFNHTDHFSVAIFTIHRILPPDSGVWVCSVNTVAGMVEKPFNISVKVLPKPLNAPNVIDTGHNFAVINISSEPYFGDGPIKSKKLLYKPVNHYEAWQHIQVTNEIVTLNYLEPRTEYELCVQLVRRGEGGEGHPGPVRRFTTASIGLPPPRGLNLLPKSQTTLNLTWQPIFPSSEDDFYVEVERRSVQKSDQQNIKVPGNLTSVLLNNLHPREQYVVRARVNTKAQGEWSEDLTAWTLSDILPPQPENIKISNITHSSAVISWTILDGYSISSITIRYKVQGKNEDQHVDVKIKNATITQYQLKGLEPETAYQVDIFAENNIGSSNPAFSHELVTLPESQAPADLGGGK
Experimental: A 96-well MaxiSorp™ flat-bottom plate (Nunc) was coated with 4 ug/ml of Tie2-Fc (R&D systems) or BSA (Sigma). Then, the plate was washed five times with 0.05% (v/v) Tween-20-containing PBS (Phosphate Buffer Saline) and blocked with 1% (v/v) BSA (Bovine serum albumin; Sigma)-containing PBS at a room temperature for 2 hours. […] After that, an anti-mouse IgG antibody (Sigma) conjugated with HRP diluted in 1% (v/v) BSA-containing PBS at a ratio of 1:5,000 (v/v) was added in an amount of 100 ul to each well to react at a room temperature for 1 hour and then, the plate was washed five times with PBST. Lastly, 100 ul (microliter) of TMB substrate (Cell Signaling) was added to each well of the plate to induce color development for 3 min. and then, the reaction was ceased by the addition of 100 ul of Stop solution (Cell Signaling) and OD450 values were measured on a plate reader (Molecular Devices).

[4] = molecular target: mutant Ang2 protein, A449 substituted with alanine, FLAG-tagged at its N-terminal (human) (UniProt O15123); experiment: ELISA, coated antibody 1000 nM, 250 ng FLAG-tagged mutant Ang2, anti-FLAG-HRP, OD450

B1: SAIT-ANG2-AB-m10D6 (antibody, V domains shown)
VH: DVQLQESGPGLVKPSQSLSLTCTVTGYSITSDYAWNWIRQFPGNKLEWMGYINYSGNTDYNPSLKSRSSITRDTSKNQFFLQLNSVTTGDTATYYCARGNFEGAMDYWGQGTSVTVSS
VL: SIVMTQTPKFLLVSAGDRVTITCKASQSVSNDVAWYQQKPGQSPKLLIYYASNRYPGVPDRFTGSGYGTDFTFTISTVQAEDLAVYFCQQDYSSPWTFGGGTKLEIK
notes: also called antibody 10D6; anti-Ang2 antibody (10D6)
Tie2 phosphorylation effect relative to control antibody RG [1]: ~8.6 fold | Tie2 phosphorylation level (pTyr/Tie2 ratio), HUVEC, 60 nM antibody with Ang2 [1]: 180% | binding affinity (%) with mutant Ang2 against the binding affinity with the native Ang2 [2]: 107% | binding affinity (%) with mutant Ang2 against the binding affinity with the native Ang2 [3]: 110% | binding result (hTie2-Fc (R&D Systems)): no binding (tested: 2 µg/ml) | binding affinity (%) with mutant Ang2 against the binding affinity with the native Ang2 [4]: 97.9%

— patent US20150079112A1 (SAMSUNG ELECTRONICS, published 2015)
